The values below come from PMC12692541.

The series relates to HalTzlAAA homotrinucleopeptide (synthetic (designed)). Briefly: fluorescence anisotropy. As to conditions: none (unmodified); TB (tris/borate) buffer, 25 °C, 20 min incubation; RNA refolded at 90 °C for 5 min; salt and pH not given in the material.

As a reminder, the Kd is the free concentration of one partner at which half of the binding sites on the other are occupied at equilibrium, for simple one-to-one binding. Regarding GCAGACUUUUAAUCUGC [ASLLys3], the dissociation constant (Kd) was 75.3 µM.
